Source: patent US20070021348

Biological target: human APP isoform 695 (in SH-SY5Y APP695 cells), P05067
Sequence (P05067 whole entry, looked up, canonical isoform): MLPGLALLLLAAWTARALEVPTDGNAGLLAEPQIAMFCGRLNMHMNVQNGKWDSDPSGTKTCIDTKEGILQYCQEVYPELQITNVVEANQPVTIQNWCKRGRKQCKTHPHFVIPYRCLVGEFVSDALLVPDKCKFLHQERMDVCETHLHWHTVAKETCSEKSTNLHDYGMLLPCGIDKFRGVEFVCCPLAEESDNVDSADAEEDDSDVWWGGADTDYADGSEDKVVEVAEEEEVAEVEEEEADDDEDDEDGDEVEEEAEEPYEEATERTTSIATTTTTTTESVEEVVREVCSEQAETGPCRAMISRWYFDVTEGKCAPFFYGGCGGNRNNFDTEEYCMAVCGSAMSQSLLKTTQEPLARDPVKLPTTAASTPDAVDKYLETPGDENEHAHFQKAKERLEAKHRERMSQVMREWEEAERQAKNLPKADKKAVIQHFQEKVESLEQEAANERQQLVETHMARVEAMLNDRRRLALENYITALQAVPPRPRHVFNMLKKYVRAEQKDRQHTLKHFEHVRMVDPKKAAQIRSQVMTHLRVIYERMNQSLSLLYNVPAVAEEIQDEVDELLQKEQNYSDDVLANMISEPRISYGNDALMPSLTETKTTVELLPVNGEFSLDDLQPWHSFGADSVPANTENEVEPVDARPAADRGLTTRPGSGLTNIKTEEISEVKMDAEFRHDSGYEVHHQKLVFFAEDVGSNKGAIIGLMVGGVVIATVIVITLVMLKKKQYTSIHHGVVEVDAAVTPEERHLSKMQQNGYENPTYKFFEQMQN

Protein	sAPPβ (110 kDa) in media, Western blot	sAPPβ in media, Western blot
Asp 2 (transiently expressed from pcDNA3.1aMycHis) (protein) ETDEEPEEPGRRGSFVEMVDNLRGKSGQGYYVEMTVGSPPQTLNILVDTGSSNFAVGAAPHPFLHRYYQRQLSSTYRDLRKGVYVPYTQGKWEGELGTDLVSIPHGPNVTVRANIAAITESDKFFINGSNWEGILGLAYAEIARPDDSLEPFFDSLVKQTHVPNLFSLQLCGAGFPLNQSEVLASVGGSMIIGGIDHSLYTGSLWYTPIRREWYYEVIIVRVEINGQDLKMDCKEYNYDKSIVDSGTTNLRLPKKVFEAAVKSIKAASSTEKFPDGFWLGEQLVCWQAGTTPWNIFPVISLYLMGEVTNQSFRITILPQQYLRPVEDVATSQDDCYKFAISQSSTGTVMGAVIMEGFYVVFDRARKRIGFAVSACHVHDEFRTAAVEGPFVTLDMEDCGYNIPQTDESTLMTIAYVMAAICALFMLPLCLMVCQWRCLRCLRQQHDDFADDISLLK	An increase in sAPPβ (110 kDa) was observed in the media from Asp 2 transfected cells compared to empty vector pcDNA3.1MycHis transfected control cells	
Asp 2 active site mutant D93N (protein) ETDEEPEEPGRRGSFVEMVDNLRGKSGQGYYVEMTVGSPPQTLNILVNTGSSNFAVGAAPHPFLHRYYQRQLSSTYRDLRKGVYVPYTQGKWEGELGTDLVSIPHGPNVTVRANIAAITESDKFFINGSNWEGILGLAYAEIARPDDSLEPFFDSLVKQTHVPNLFSLQLCGAGFPLNQSEVLASVGGSMIIGGIDHSLYTGSLWYTPIRREWYYEVIIVRVEINGQDLKMDCKEYNYDKSIVDSGTTNLRLPKKVFEAAVKSIKAASSTEKFPDGFWLGEQLVCWQAGTTPWNIFPVISLYLMGEVTNQSFRITILPQQYLRPVEDVATSQDDCYKFAISQSSTGTVMGAVIMEGFYVVFDRARKRIGFAVSACHVHDEFRTAAVEGPFVTLDMEDCGYNIPQTDESTLMTIAYVMAAICALFMLPLCLMVCQWRCLRCLRQQHDDFADDISLLK		There was no increase in sAPPβ secreted from cells transfected with either of the Asp-Asn mutants D93N or D289N
Asp 2 active site mutant D289N (protein) ETDEEPEEPGRRGSFVEMVDNLRGKSGQGYYVEMTVGSPPQTLNILVDTGSSNFAVGAAPHPFLHRYYQRQLSSTYRDLRKGVYVPYTQGKWEGELGTDLVSIPHGPNVTVRANIAAITESDKFFINGSNWEGILGLAYAEIARPDDSLEPFFDSLVKQTHVPNLFSLQLCGAGFPLNQSEVLASVGGSMIIGGIDHSLYTGSLWYTPIRREWYYEVIIVRVEINGQDLKMDCKEYNYDKSIVNSGTTNLRLPKKVFEAAVKSIKAASSTEKFPDGFWLGEQLVCWQAGTTPWNIFPVISLYLMGEVTNQSFRITILPQQYLRPVEDVATSQDDCYKFAISQSSTGTVMGAVIMEGFYVVFDRARKRIGFAVSACHVHDEFRTAAVEGPFVTLDMEDCGYNIPQTDESTLMTIAYVMAAICALFMLPLCLMVCQWRCLRCLRQQHDDFADDISLLK		There was no increase in sAPPβ secreted from cells transfected with either of the Asp-Asn mutants D93N or D289N
